# Laboratory results published in patent US20100196361A1, “Method of inhibition of vascular development using an antibody” (DYAX CORP., priority 2003, published 2010).
# Molecular target: Tie1 (Homo sapiens, UniProt P35590)
# Test: Immunohistochemistry of matched tumor and normal tissue sections
# Type: binding
# Conditions: frozen sections
# Protocol: To evaluate the binding of E3 to Tie1 in primary tumor and normal tissue the antibody was produced as an IgG and biotin labeled. The E3 antibody and two other anti Tie1 antibodies B2 and D11 were reformatted as full length IgG molecules. Nucleic acids encoding these IgGs were transiently transfected into HEK293T cells. Plasmid preparations for transient cell transfections were performed using the HP-[…]™ MIDI prep kit (Sigma, cat. no. NA0200). HEK293T cells (GenHunter Corp. cat. no. Q401) were seeded 24 hours before transfection; 6×10^6 cells were plated per 10-cm culture dish. Transfections were carried out using LIPOFECTAMINE™ 2000 reagent (Invitrogen, cat. no. 11668019) following the manufacturer's instructions. Five micrograms of plasmid DNA was used per 10-cm dish. Cells were cultured in DMEM (Invitrogen, cat. no. 31966021) supplemented with 10% “ultra-low IgG” fetal calf serum (Invitrogen, cat. no. 16250078), at 37° C., 5% CO2, in a water saturated atmosphere. Conditioned media were harvested 72 hours and 144 hours after transfection, pooled and sterile filtered.
# The Tie1 antibodies were biotinylated using the EZ-link Sulfo-NHS-SS-Biotin (Pierce, Cat. 21331). For Tie1/Fc and Tie1-His, the reaction was performed for 2 hours on ice in 50 mM sodium carbonate buffer, pH 9.6, in the presence of a 5-fold molar excess of biotinylating agent. For the antibodies, the reaction was performed for 2 hours on ice in PBS, in the presence of a 15-fold molar excess of EZ-link Sulfo-NHS-SS-Biotin. The reaction was stopped by the addition of Tris-HCl, pH 7.5 (50 mM final concentration) followed by a 1-hour incubation on ice. Samples were then dialyzed against PBS.
# Various normal and tumor tissue sections were stained with biotinylated antibodies. A mouse monoclonal anti-Tie1 antibody (7e8) (Alitalo laboratory, University of Helsinki) was used as a positive control. Sections without primary antibody served as negative control. All samples were fresh frozen tissues and staining was performed with the TSA-kit (Perkin-Elmer Life Sciences). After acetone fixation (10-20 min, −20° C.) the slides were treated with 0.73% H2O2 for 10 min to reduce endogenous peroxidase activity followed by blocking for 30 min with TNB buffer. Sections ([…] thick) were incubated with primary antibodies (10 μg/ml) overnight at 4° C. Sections with the mouse monoclonal anti-tie1 antibody (7e8) were treated with biotinylated anti-mouse antibodies (VectaStain) before the addition of streptavidin-HRP. Signal was amplified by using a TSA kit and the visualized by AEC (235 ml NaAc,15 ml AEC (stock solution: 1600 mg 3-amino-9-ethyl-carbazole and 480 ml N-dimethylformamide), 250 μl H2O2).
# Chain of Tie1 (P35590 22-1138): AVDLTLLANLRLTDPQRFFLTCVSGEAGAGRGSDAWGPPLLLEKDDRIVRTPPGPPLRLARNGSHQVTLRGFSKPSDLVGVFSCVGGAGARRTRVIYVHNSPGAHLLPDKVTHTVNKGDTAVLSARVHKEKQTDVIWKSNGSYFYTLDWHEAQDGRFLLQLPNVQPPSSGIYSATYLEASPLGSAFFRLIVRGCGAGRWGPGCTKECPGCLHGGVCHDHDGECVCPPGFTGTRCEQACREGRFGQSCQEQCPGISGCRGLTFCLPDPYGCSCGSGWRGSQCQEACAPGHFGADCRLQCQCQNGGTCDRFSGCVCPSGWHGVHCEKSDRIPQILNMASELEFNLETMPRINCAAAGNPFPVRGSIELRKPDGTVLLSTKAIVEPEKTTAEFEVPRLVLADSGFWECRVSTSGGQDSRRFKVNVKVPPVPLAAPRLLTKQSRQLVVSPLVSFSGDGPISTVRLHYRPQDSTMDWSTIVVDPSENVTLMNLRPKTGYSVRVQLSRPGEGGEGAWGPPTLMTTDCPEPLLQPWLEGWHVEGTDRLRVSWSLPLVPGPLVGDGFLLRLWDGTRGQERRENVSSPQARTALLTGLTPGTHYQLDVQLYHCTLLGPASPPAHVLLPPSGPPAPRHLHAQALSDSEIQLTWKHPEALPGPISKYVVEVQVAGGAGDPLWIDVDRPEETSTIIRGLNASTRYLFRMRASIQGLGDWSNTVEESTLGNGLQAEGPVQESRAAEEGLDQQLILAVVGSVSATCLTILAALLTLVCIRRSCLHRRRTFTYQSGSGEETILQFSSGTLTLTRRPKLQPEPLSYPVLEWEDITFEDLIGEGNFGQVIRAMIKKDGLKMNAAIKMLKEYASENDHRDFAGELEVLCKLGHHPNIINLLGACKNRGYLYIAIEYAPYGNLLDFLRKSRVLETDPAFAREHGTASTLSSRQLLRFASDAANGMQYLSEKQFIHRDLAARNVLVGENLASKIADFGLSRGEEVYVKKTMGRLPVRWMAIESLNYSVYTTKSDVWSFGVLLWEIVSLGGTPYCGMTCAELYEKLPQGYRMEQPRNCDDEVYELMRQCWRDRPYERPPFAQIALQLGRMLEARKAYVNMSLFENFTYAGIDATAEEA
molecule,measurement,setting,value
"E3: human anti-Tie1 antibody from phage Fab library, reformatted as IgG; HC variable SEQ ID NO:114, LC variable SEQ ID NO:116 (antibody, V domains shown, IgG constant regions; Synthetically generated peptide) VH: EVQLLESGGGLVQPGGSLRLSCAASGFTFSMYGMVWVRQAPGKGLEWVSVISPSGGNTGYADSVKGRFTISRDNSKNTLYLQVNSLRAEDTAVYYCARAPRGYSYGYYYWGQGTLVTVSSASTKGPSVFPLAPSSKSTSGG VL: DIQMTQSPLSLSASVGDRVTITCRASQGIGHYLAWYQQKPGKVPKLLIYTASTLQSGVPSRFSGSGSGTDFTLTINSLQPEDVATYYCQQFNSYPHTFGQGTRLDIK",staining of breast (mammary tissue),10 μg/ml,brightest staining in the veins and capillaries of the mammary tissue
same,staining of breast carcinoma,10 μg/ml,stained also other structures in addition to vessels
same,staining of hypernephroma tissue,10 μg/ml,clear staining
same,staining of kidney,10 μg/ml,stained kidney tubules in addition to the vessels
same,staining of lung carcinoma,10 μg/ml,stained structures other than vessels
same,staining of melanoma tissue,10 μg/ml,also stained other surrounding structures
same,staining of normal lung,10 μg/ml,stained especially clearly the large veins in the lung
same,staining of normal skin,10 μg/ml,stained blood vessels very faintly
same,tissue specificity of vessel staining in normal tissues,biotinylated antibody 10 μg/ml,stained vessels in the lung and kidney but not in the skin
